According to publication PMC4192534:

Columns and labels:
[1] = molecular target: FGF2-C-His (C-terminal 6xHis tagged 18 kDa human FGF2) (human) (UniProt P09038); assay: AlphaScreen or HTRF; N-N orientation: FGF2-C-His bound to both Ni chelate donor and acceptor beads, increasing FGF2-C-His (0-75.5 µM)
[2] = molecular target: FGF2-C-His (C-terminal 6xHis tagged 18 kDa human FGF2) (human) (UniProt P09038); assay: AlphaScreen or HTRF; N-N orientation, competition: 1 µM FGF2-C-His on Ni chelate donor and acceptor beads with increasing competitor
[3] = molecular target: FGF2-C-His (C-terminal 6xHis tagged 18 kDa human FGF2) (human) (UniProt P09038); assay: AlphaScreen or HTRF; C-N orientation, competition: 50 nM FGF2-N-GST and 50 nM FGF2-C-His with increasing competitor, added 30 min before the beads; signal as percent of control without competitor

EC50 [1] [nM]	IC50 [2] [nM]	IC50 [3] [nM]	Substance
6350	–	–	FGF2-C-His (C-terminal 6xHis tagged 18 kDa human FGF2) (from UniProt P09038-2 1-155) (natural protein)
–	620	–	FGF2-N-GST (N-terminal GST tagged 18 kDa human FGF2) (from UniProt P09038-2 1-155) (natural protein)
–	–	180	Tag-less FGF2 (from UniProt P09038 143-288) (natural protein)
–	9560	265	platelet factor 4 (PF4) (natural protein)
